In patent US20150322445A1:

Tests used:
[1] = biological target: Leavenworthia alabamica Lal2 polypeptide, a1-1 allele (Leavenworthia alabamica); experiment: cell-based or functional assay
[2] = biological target: Leavenworthia alabamica Lal2 polypeptide, a1-2 allele (Leavenworthia alabamica); experiment: cell-based or functional assay
Chain of Leavenworthia alabamica Lal2 polypeptide, a1-2 allele (Leavenworthia alabamica) (main, as listed by the source): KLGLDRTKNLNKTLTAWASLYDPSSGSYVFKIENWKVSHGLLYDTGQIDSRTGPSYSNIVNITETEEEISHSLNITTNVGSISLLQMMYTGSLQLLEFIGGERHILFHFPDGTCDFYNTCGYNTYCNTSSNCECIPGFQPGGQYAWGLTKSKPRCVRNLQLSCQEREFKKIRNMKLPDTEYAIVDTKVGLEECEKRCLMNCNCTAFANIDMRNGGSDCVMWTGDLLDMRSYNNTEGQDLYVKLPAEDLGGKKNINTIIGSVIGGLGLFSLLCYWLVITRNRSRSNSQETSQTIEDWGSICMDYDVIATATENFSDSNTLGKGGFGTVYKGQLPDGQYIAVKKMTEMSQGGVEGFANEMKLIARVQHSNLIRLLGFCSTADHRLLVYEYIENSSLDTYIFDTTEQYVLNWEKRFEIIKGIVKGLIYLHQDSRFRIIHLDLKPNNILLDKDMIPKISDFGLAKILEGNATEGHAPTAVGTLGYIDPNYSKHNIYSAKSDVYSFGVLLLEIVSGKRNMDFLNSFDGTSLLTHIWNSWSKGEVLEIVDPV

Chain of Leavenworthia alabamica Lal2 polypeptide, a1-1 allele (Leavenworthia alabamica) (chain, as listed by the source limits assumed, form in doubt): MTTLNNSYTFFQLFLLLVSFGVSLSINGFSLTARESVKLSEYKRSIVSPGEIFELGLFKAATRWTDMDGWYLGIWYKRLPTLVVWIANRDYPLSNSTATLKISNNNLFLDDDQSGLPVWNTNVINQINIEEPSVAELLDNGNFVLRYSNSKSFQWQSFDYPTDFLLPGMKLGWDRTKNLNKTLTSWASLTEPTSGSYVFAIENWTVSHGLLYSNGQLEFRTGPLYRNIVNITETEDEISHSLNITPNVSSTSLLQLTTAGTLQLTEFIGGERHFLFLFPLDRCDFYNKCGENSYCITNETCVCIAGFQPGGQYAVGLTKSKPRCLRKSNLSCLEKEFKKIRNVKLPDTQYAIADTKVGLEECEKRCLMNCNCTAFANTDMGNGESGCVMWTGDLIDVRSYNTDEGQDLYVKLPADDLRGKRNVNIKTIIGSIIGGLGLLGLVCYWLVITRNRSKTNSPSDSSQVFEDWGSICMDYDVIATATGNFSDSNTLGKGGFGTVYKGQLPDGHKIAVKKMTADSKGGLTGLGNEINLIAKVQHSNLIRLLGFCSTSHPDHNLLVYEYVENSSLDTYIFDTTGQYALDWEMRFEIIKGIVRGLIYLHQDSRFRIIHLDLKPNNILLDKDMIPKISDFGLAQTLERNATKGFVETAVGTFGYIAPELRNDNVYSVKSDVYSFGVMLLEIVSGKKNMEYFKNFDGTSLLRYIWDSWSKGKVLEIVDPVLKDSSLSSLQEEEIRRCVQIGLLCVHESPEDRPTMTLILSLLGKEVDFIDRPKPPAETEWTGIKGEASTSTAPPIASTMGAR

For “Leavenworthia alabamica SCRL polypeptide, a1-1 allele”, the Pollen rejection reactions observed (fewer than ten pollen tubes in the pistil); female line 1-15 (Lal2 transformant) x male line 3-13 (SCRL transformant), 5 crosses [1] was 3 of 5 crosses.

In the case of “Leavenworthia alabamica SCRL polypeptide, a1-1 allele (ligand)”, the Pollen rejection reactions observed (fewer than ten pollen tubes in the pistil); female line 1-15 (Lal2 transformant) x male line 4-21 (SCRL transformant), 5 crosses [1] is reported as 3 of 5 crosses, the Pollen rejection reactions observed (fewer than ten pollen tubes in the pistil); female line 1-25 (Lal2 transformant) x male line 3-13 (SCRL transformant), 5 crosses [1] is reported as 4 of 5 crosses and the Pollen rejection reactions observed (fewer than ten pollen tubes in the pistil); female line 1-25 (Lal2 transformant) x male line 4-21 (SCRL transformant), 5 crosses [1] is reported as 1 of 5 crosses.

A Crosses that produced fruit or had germinated pollen tubes; a1-2 recipient plant x a2 pollen donors (% of 9 crosses) [2] of 89 was found for MAKSVRLISFIIYLTINMLIFAVNPKPHSSQVPPIPDPGKHRRCF (ligand) [Leavenworthia alabamica SCRL, a2 allele (truncated protein)] in this work.
